What all share (assay): cell-based or functional assay
The target of experiment [1] is T1, EBOV GP on rVSV particles (Ebola virus (EBOV), UniProt Q05320 33-676).
T1 sequence: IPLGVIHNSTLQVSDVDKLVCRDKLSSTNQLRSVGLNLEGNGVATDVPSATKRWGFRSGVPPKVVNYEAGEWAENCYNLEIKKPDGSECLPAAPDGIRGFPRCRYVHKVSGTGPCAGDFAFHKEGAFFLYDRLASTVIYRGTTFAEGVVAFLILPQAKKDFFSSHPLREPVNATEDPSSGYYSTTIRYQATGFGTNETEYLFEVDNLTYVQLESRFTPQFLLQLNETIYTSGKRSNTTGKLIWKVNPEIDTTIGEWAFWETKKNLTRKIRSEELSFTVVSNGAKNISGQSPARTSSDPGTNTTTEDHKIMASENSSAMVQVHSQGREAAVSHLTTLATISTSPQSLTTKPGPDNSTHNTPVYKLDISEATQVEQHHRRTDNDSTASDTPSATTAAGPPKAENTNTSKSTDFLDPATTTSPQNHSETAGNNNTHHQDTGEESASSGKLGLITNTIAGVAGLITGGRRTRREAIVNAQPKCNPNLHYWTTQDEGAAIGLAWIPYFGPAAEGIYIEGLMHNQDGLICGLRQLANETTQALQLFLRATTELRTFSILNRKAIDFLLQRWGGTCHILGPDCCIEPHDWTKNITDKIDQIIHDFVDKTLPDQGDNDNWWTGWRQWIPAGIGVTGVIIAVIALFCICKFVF

In experiment [2] the target is T2, SUDV GP on rVSV particles (Sudan virus (SUDV), UniProt Q66814 33-676).
T2 sequence: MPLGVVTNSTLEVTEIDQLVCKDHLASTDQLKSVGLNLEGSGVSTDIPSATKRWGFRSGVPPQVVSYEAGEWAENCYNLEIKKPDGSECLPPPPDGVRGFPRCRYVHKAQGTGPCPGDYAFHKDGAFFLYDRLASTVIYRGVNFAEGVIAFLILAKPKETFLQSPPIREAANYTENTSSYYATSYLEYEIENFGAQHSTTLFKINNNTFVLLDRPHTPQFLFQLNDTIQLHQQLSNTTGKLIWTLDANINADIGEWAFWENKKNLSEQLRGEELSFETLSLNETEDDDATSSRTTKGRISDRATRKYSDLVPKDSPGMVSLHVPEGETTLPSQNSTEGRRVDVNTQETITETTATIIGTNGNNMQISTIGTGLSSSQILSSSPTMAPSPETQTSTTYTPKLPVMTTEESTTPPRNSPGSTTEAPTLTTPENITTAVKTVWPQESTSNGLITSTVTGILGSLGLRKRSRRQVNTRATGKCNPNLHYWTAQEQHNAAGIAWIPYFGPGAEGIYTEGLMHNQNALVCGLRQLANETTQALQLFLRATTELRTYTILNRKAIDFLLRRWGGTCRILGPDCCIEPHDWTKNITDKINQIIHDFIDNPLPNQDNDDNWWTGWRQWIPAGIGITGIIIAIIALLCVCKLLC

Experiment [3] deals with BDBV GP on rVSV particles (Bundibugyo virus (BDBV)).
Experiment [4] has as its target T3, RESTV GP on rVSV particles (Reston virus (RESTV), UniProt Q66799 34-677).
T3 sequence: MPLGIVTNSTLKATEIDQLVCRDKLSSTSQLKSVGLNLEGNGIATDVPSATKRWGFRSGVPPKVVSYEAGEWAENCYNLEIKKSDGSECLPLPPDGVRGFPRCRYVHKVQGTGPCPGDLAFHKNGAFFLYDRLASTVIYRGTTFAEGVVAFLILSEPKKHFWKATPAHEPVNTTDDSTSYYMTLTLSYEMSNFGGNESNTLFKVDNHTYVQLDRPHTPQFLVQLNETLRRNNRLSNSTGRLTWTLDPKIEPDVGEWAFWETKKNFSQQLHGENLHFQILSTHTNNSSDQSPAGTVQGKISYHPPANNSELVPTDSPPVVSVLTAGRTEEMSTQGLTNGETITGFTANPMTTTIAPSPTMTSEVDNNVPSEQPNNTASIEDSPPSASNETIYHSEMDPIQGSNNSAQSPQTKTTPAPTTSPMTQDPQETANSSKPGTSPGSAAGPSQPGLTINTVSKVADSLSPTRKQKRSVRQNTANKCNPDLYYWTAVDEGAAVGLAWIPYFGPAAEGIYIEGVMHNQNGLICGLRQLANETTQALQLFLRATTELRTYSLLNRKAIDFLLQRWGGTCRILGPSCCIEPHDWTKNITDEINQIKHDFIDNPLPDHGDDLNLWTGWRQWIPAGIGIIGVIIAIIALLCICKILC

The target in experiment [5] is T4, TAFV GP on VSV pseudotype particles (Tai Forest virus (TAFV), UniProt Q66810 33-676).
T4 sequence: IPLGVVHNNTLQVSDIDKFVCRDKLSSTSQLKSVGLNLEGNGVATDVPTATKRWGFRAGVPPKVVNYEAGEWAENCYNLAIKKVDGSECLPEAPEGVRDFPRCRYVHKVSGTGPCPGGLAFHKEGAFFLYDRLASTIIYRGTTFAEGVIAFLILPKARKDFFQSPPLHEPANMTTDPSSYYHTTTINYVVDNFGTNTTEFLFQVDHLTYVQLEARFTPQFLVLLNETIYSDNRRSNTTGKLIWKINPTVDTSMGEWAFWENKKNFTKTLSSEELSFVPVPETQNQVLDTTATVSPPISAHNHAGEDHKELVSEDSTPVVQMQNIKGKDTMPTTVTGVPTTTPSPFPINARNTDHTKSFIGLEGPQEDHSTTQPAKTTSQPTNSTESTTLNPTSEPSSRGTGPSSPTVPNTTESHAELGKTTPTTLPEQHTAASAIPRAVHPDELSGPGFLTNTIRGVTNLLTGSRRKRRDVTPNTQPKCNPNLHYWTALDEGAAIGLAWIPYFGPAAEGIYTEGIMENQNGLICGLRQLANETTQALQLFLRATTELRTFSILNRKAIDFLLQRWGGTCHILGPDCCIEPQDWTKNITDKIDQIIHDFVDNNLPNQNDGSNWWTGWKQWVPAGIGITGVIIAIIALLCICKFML

B1: mAb PE-87 (antibody, V domains shown)
VH: QVQLVQSGVTLVQPGGSLRVSCAASGFTFSSYAMSWVRQAPGKGLEWVSAISGLGGSTYYADSVKGRFTISRDNSKNTLYLQMNSLRAEDTAVYYCAKDHRVWAAGYHFDYWGQGALVTVSS
VL: DIVLTQSPSTLSASVGDRVTITCRASQSISSWLAWYQQKPGEAPKLLISDASSLESGVPSRFSGSGSGTEFTLTISSLQPDDFATYYCQQYYSSPTFGGGTKVEIK
For the molecule B1, the “IC50 (nM), neutralization of rVSV-GP” value in experiment [1] worked out at 1 nM; in experiment [2], 0.8 nM; in experiment [3], 0.4 nM; in experiment [4], 0.1 nM; in experiment [5], 0.9 nM.

Values taken from US20180244758A1 (MAPP BIOPHARMACEUTICAL, published 2018).
